# Test results as given in US8114412B2, “T. cruzi-derived neurotrophic agents and methods of use therefor” (priority 1999, dated 2012).
# Entries after “also recorded” stand apart in the source; their conditions may differ.
# B1: TS: T. cruzi trans-sialidase purified by immuno-affinity chromatography from supernatants of infected Vero cells (SEQ ID NO:2, SEQ ID NO:34) (protein, listed as Trypanosoma cruzi)
# chain: MVAIADARYETSSENSLIDTVAKYSVDDGETWETQIAIKNSRVSSVSRVVDPTVIVKGNKLYVLVGSYYSSRSYWSSHGDARDWDILLAVGEVTKSTAGGKITASIKWGSPVSLKKFFPAEMEGMHTNQFLGGAGVAIVASNGNLVYPVQVTNKRKQVFSKIFYSEDDGKTWKFGKGRSDFGCSEPVALEWEGKLIINTRVDWKRRLVYESSDMEKPWVEAVGTVSRVWGPSPKSNQPGSQTSFTAVTIEGMRVMLFTHPLNFKGRCVRDRLNLWLTDNQRIYNVGQVSIGDENSAYSSVLYKDDKLYCLHEINTDEVYSLVFARLVGELRIIKSVLRSWKNWTATCPAFAPLLIQPLRRQRVVVVPLSPRLVLLAFCRQRLPKRMGGSYRCVNASTANAERVRNGLKFAGVGGGALWPVSQQGQNQRYRFANHAFTLVASVTIHEAPRAASPLLGASLDSSGGKKLLGLSYDEKHQWQPIYGSTPVTPTGSWETGKRYHLVLTMANKIGSVYIDGELLEGSGQTVVPDGRTPDISHFYVGGYKRSDMPTISHVTVNNVLLYNRRQLNTEEIRTLFLSQDLIGTEAHMDSSSDSSAHSTPSTPADSSAHSTPSTPVDSSAHSTPSTPADSSAHGTPSTPVDSSAHGTPSTPADSSAHGTPSTPVDSSAHSTPSTPVDSSAHSTPSTPVDSSAHGAPSTPADSSAHGTPSTPVDSSAHGTPSTPADSSAHSTPSTPADSSAHSTPSTPADSSAHSTPSTPVDSSAHGTPSTPADSSAHSTPSTPADSSAHGTPSTPVDSSAHSTPSTPVDSSAHGTPSTPVDSSAHSTPSTPVDSSAHGTPSTPVDSSAHSTPSTPADSSAHSTPSTPADSSAHGTPSTPVDSSAHSTPSTPADSSAHSTPSTPVDSSAHSTPSTPADSSAHGTPSTPVDSSAHGTPSTPADSSAHSTPSTPADSSAHSTPSTPADSSAHSTPSTPVDSSAHSTPSTPADSSAHSTPSTPADSSAHSTPSTPADSSAHSTPSTPVDSSAHSTPSTPADSSAHGTPSTPADSSAHSTPSTPVDSSAHSTPSTPADSSAHGTPSTPADSSAHSTPSTPADSSAHGTPSTPADSSAHSTPSTPAGSSANGTVLILPDGAALSTFSGGGLLLCACALLLHVFFMAVF
# B2: TS-F: recombinant full catalytic domain of TS, amino acid residues 33-666, His-tagged, expressed in E. coli (protein, listed as Trypanosoma cruzi)
# chain: ETQIAIKNSRVSSVSRVVDPTVIVKGNKLYVLVGSYYSSRSYWSSHGDARDWDILLAVGEVTKSTAGGKITASIKWGSPVSLKKFFPAEMEGMHTNQFLGGAGVAIVASNGNLVYPVQVTNKRKQVFSKIFYSEDDGKTWKFGKGRSDFGCSEPVALEWEGKLIINTRVDWKRRLVYESSDMEKPWVEAVGTVSRVWGPSPKSNQPGSQTSFTAVTIEGMRVMLFTHPLNFKGRCVRDRLNLWLTDNQRIYNVGQVSIGDENSAYSSVLYKDDKLYCLHEINTDEVYSLVFARLVGELRIIKSVLRSWKNWTATCPAFAPLLIQPLRRQRVVVVPLSPRLVLLAFCRQRLPKRMGGSYRCVNASTANAERVRNGLKFAGVGGGALWPVSQQGQNQRYRFANHAFTLVASVTIHEAPRAASPLLGASLDSSGGKKLLGLSYDEKHQWQPIYGSTPVTPTGSWETGKRYHLVLTMANKIGSVYIDGELLEGSGQTVVPDGRTPDISHFYVGGYKRSDMPTISHVTVNNVLLYNRRQLNTEEIRTLFLSQDLIGTEAHMDSSSDSSAHSTPSTPADSSAHSTPSTPVDSSAHSTPSTPADSSAHGTPSTPVDSSAHGTPSTPADSSAHGTPSTPVDS
# modifications: His tag
# notes: recombinant full catalytic domain of TS, amino acid residues 33-666, His-tagged, expressed in E. coli
# Key:
# [1] = tested on: peripheral blood mononuclear cells (PBMC); test: IL-6 secretion by PBMC (ELISA); type: cell-based, human; design: IL-6 secretion by PBMC: dose or concentration left out as unconfirmed
# Description: Primary cultures of human intestinal microvascular endothelial cells (HIMEC) isolated from normal jejunal mucosa/submucosal tissue were prepared as described (Strong et al., Gastroenterology 114: 1244-1256 (1998)). The HIMEC were cultured in fibronectin-coated plasticware in MCDB medium (Sigma) supplemented with 20% FBS, 90 μg/ml heparin and 50 μg/ml endothelial cell growth factor (Sigma). T-24 cells (ATCC Accession No. HTB-4) were cultured in M199 medium supplemented with 10% FBS. PBMC were purified by Ficoll-Paque gradient as described (Current Protocols in Immunology, pp 7.1.1-7.1.2). Vero cells (ATCC Accession No. CCL-81) were grown in RPMI medium with 5% Nu serum and infected with the Silvio X-10/4 of T. cruzi as described previously (Chuenkova et al., J. Exp. Med. 181: 1693-1703, (1995)).
# (§1) Endothelial cells and T-24 cells were plated on 24-well plates at a density of 1×10^3 cells/well, while peripheral blood mononuclear cells (PBMC) were plated in the similar wells at 1×10^6/well. Triplicat cultures of cells were incubated test agents for a predetermined amount of time. […] Cytokines and chemokines released in the culture supernatants were measured by ELISA assay following the instructions of the manufacturer (Endogen). The cytokines tested were IL-1β, IL-4, IL-8, IL-10, IL-12, IFN-γ, TNF-α, and the chemokines RANTES and MCP-1. Negative controls were cells incubated in medium containing polymixin B at 10 μg/ml, and positive controls were cells incubated with bacterial LPS at the low ng/ml range (for PBMC or HIMEC) or in the μg/ml range for carcinoma T-24 cells. In some experiments, IL-1β, or TNFα were used as positive control for cytokine release.
# TR peptides (Table 2) were synthesized at the Tufts Synthesis Facility (Boston, Mass.). Each peptide was purified by HPLC, and the number of amino acids and molecular weight of each peptide verified by mass spectrometry. Peptides were dissolved in growth medium (10% FCS in RPMI) and added at various concentrations to 1×10^6 PBMC/well in 24-well plates. After 24 hrs, IL-6 was assayed by ELISA in the conditioned supernatants.
# PC12 cells = test: Neurite outgrowth assay in PC12 cells; type: cell-based, rat
# Text: PC12 cells were obtained from ATCC (Manassas, Va. (Accession No. CRL-1721)) and cultured on collagen-coated dishes in RPMI 1640 supplemented with 10% horse serum and 5% fetal bovine serum (Greene, L. A. and Tishler, A. S., Proc. Natl. Acad. Sci. USA, 73: 2424-2428 (1976)). For differentiation and survival experiments, cells were washed three times in serum-free RPMI/0.2% BSA, plated in the same medium in collagen-coated plastic dishes at 2×10^5/ml, without and with growth factors, TS, recombinant proteins, synthetic peptides, for the time and concentrations indicated in the Figures.
# 96-well microtiter plates were coated overnight at 4° C. with the TS or peptides or fragments thereof, or with control proteins laminin (Ln) or bovine serum albumin (BSA) at 500 μg/ml. After removing the compounds, the plates were further incubated with 1% BSA for 1 hour at room temperature and immediately used as substratum for PC12 or N18 (Prasad, K. N., Biol Rev Camb Philos Soc, 66:431-451 (1991)) cells in serum-free RPMI/0.2% BSA. Neurite outgrowth was measured using a phase-contrast microscope 17 hours later.
# IL-6 mRNA in PBMC = test: RT-PCR of IL-6 mRNA in PBMC; type: cell-based, human
# Description: Semiquantitative analysis of cytokine mRNA was performed by the primer-dropping method (Wong et al., Anal. Biochem. 223:251-258, […])). […] Two μg of total RNA were converted to cDNA in a volume of 20 μl using random hexamer primers according to the manufacturer's instructions (GIBCO-BRL). Synthetic DNA primers for human IL-6 were 5′[…] (SEQ ID NO:24) and 5′[…] (SEQ ID NO:25), and for GAPDH were those described in Example 1 (SEQ ID NO: 10 and SEQ ID NO:11). The PCR mixture contained 20 mM Tris-HCl pH 8.4, 50 mM KCl, 1.5 mM MgCl2, 1 mM dNTP, 200 pM primers and 1 U of Taq polymerase in 50 μl. Thermal cycling conditions were: denaturation step 95 degrees for 5 min; 35 cycles of 95 degrees 30 sec, 60 degrees 30 sec and 75 degrees 1 min, and a final step of 75 degrees for 5 min. At cycle number 9, GAPDH primers were added. Five microliters of the PCR product were alalyzed by electrophoresis through 2% agarose-gel in the presence of 1 μg/ml ethidium bromide.
# [2] = tested on: human intestinal microvascular endothelial cells (HIMEC); test: Other cytokines and chemokines in HIMEC supernatants (ELISA); type: cell-based; conditions: 24 hrs; bacterial LPS 50 ng/ml
# Description: as §1
# normal human neutrophils = test: IL-6 production by normal human neutrophils; type: cell-based
# [3] = tested on: Akt kinase in human Schwann cells; test: Immunodetection of activated Akt (Ser473) in Schwann cells
# Description: Schwann cells, grown in 10% FCS to 70% confluency in 6-well plates, were switched to DMEM containing 0.1% FCS for 48 hours to reduce basal Akt phosphorylation. Then the cells were placed in serum-free DMEM medium for 2 hours and challenged with TS, CD or other test factors for predetermined periods of time. When the PI-3 kinase inhibitor LY294002 (Sigma) was used, the inhibitor was added to the serum-starved cells 30 minutes before challenge with TS or CD. Cell samples were lysed with lysis buffer (20 mM Tris, pH7.5, 150 mM NaCl, 1 mM EDTA, 1% Triton X-100 (t-Octylphenoxypolyethoxyethanol), 2.5 mM sodium pyrophosphate, 1 mM glycerophosphate, 1 mM Na3VO4, 1 μg/ml leupeptin and 1 mM Phenymethylsulfonyl fluoride (PMSF)). Samples (40 μg) were run on 10% SDS-Page, blotted to nitrocellulose paper and analyzed by Western (immuno) blot with monoclonal antibody specific for P-Ser473 of Akt (New England Biolabs). Reaction was visualized by chemiluminescence using the ECL kit (New England Nuclear).
# Schwann cells were seeded in 10% FCS to 50-70% confluency in 10 cm Petri dishes 24 h prior transfection, performed in serum-free DMEM. Cells were maintained in 10% FCS for 24 hr and then switched to medium containing 700 μg/ml G418 (Gibco BRL) and 2% FCS for 3 days and 0.1% FCS for another 4 days with CD added to some cell monolayers. After this cells were assessed for viability by Trypan blue exclusion and by DAPI staining. At the same time cell lysates were analyzed for Akt phosphoryltion by Western (immuno) blots with monoclonal antibody specific for P-Ser473 of Akt (New England Biolabs). Reaction was visualized by chemiluminescence using the ECL kit (New England Nuclear).
# Trans-sialidase assay = type: biochemical
# Description: The trans-sialidase assay was performed as described (Scudder et al., J. Biol. Chem. 268:9886-9891 (1993)) with slight modifications. Various amounts of intact enzyme or enzyme fragments were added to 50 mM PBS, Ph 7.2, containing 15% fetal calf serum and […] of [^14C]N-acetyllactosamine (4×10^5 dpm), 50 μg BSA and 0.02% NaN3 in a volume of 60 μl. After incubation for a predetermined amount of time at room temperature, the reaction mixture was diluted to 1.0 ml with distilled water and applied to a column containing 1.0 ml Q-Sepharose equilibrated with water. Sialylated product was eluted with 1 M NaCi and quantified by scintillation counting.
# TS enzymatic activity was measured by the sialylation of the acceptor ^14C-labeled N-acetyllactosamine on anion exchange resins (Scudder, P. et. al., J. Biol. Chem. 268:9886-9891 (1993)). Recombinant TSA-1, was expressed on insect sf9 cells and purified from serum-free medium by ion exchange chromatography (monoQ) and preparative SDS-PAGE (Wrightsman, R. A. et al., J. Immunol., 153:3148-3154 (1994).
Molecule,IL-6 secretion by PBMC ([1]; 24 hrs culture),stimulation time for maximum IL-6 secretion in PBMC ([1]; TS 1 μg/ml),concentration range at which TS was active in neurite extension (PC12 cells),time PC12 neurites remained extended (PC12 cells; after a single dose of TS),time until PC12 neurites became visible (PC12 cells; after a single dose of TS),"neurite outgrowth in PC12 cells (PC12 cells; neurite outgrowth assay, concentration not given)","neurite outgrowth in PC12 cells (PC12 cells; soluble in serum-free RPMI-1640/0.2% BSA, collagen coated dishes, 16 hours, NGF 0.1 μg/ml, VCNA 2.4 μg/ml, TS 1 μg/ml)","expression of IL-6 mRNA in PBMC (IL-6 mRNA in PBMC; TS 1 μg/ml, 4, 10 or 24 hours)",time of maximal upregulation of IL-6 transcripts (IL-6 mRNA in PBMC; after TS stimulation),"concentration of other cytokines (IL-1β, IL-4, IL-8, IL-10, IL-12, INF-γ, TNF-α, RANTES, MCP-1) in HIMEC supernatants [2]",IL-6 production by normal human neutrophils (normal human neutrophils),Akt phosphorylation in Schwann cells transfected with PTEN mutant pG129R ([3]; CD 500 ng/ml),phospho-Akt in Schwann cells transfected with empty vector (neo) ([3]; CD 500 ng/ml),time after which phospho-Akt not detected ([3]; CD 500 ng/ml),time to activation of Schwann cell Akt kinase ([3]; CD 500 ng/ml),"phosphorylation/activation of Akt kinase in human Schwann cells ([3]; CD 500 ng/ml where stated, Western blot P-Akt (Ser473), listed as CD)","phospho-Akt in Schwann cells over expressing PTEN ([3]; CD 500 ng/ml, listed as CD)",trans-sialidase enzymatic activity (Trans-sialidase assay)
B1,potently and specifically induced IL-6 secretion; also recorded: stimulated IL-6 release,24 h,0.125 nM,about 24 hours,3 h,induced neurite outgrowth,induces neurite outgrowth,induces expression of IL-6 mRNA,4 to 10 h,did not increase,did not produce detectable IL-6,–,–,–,–,–,–,–
B2,–,–,–,–,–,–,–,–,–,–,–,did not detectably enhance,boosted levels of phospho-Akt,15 min,1 to 5 min,induced transient phosphorylation of Akt kinase,did not result in the generation of phospho-Akt; also recorded: did not induce phosphorylation of Akt kinase,enzymatically active
